According to patent US11833164B2, “Methods of treating Fabry disease in patients having a mutation in the GLA gene” (Amicus Therapeutics, Inc., priority 2019, dated 2023):
Positions count from the first letter of the chain named. Names and notes keep the numbering of the source.

B1: E338A (protein)
chain: MQLRNPELHLGCALALRFLALVSWDIPGARALDNGLARTPTMGWLHWERFMCNLDCQEEPDSCISEKLFMEMAELMVSEGWKDAGYEYLCIDDCWMAPQRDSEGRLQADPQRFPHGIRQLANYVHSKGLKLGIYADVGNKTCAGFPGSFGYYDIDAQTFADWGVDLLKFDGCYCDSLENLADGYKHMSLALNRTGRSIVYSCEWPLYMWPFQKPNYTEIRQYCNHWRNFADIDDSWKSIKSILDWTSFNQERIVDVAGPGGWNDPDMLVIGNFGLSWNQQVTQMALWAIMAAPLFMSNDLRHISPQAKALLQDKDVIAINQDPLGKQGYQLRQGDNFAVWERPLSGLAWAVAMINRQEIGGPRSYTIAVASLGKGVACNPACFITQLLPVKRKLGFYEWTSRLRSHINPTGTVLLQLENTMQMSLKDLL
B2: G346C (protein)
chain: B1 chain with A338E, G346C
B3: W349L (protein)
chain: B1 chain with A338E, W349L
B4: E341Q (protein)
chain: B1 chain with A338E, E341Q
B5: E338D (protein)
chain: B1 chain with A338D
B6: A350S (protein)
chain: B1 chain with A338E, A350S
B7: L344R (protein)
chain: B1 chain with A338E, L344R
B8: P343A (protein)
chain: B1 chain with A338E, P343A
B9: A350G (protein)
chain: B1 chain with A338E, A350G
B10: G346D (protein)
chain: B1 chain with A338E, G346D
B11: E341A (protein)
chain: B1 chain with A338E, E341A
B12: V339M (protein)
chain: B1 chain with A338E, V339M
B13: L344F (protein)
chain: B1 chain with A338E, L344F
B14: A348D (protein)
chain: B1 chain with A338E, A348D
B15: G346A (protein)
chain: B1 chain with A338E, G346A
B16: G346V (protein)
chain: B1 chain with A338E, G346V
B17: E338G (protein)
chain: B1 chain with A338G
B18: L344V (protein)
chain: B1 chain with A338E, L344V
B19: W349C (protein)
chain: B1 chain with A338E, W349C
B20: P343S (protein)
chain: B1 chain with A338E, P343S
B21: L347I (protein)
chain: B1 chain with A338E, L347I

Each molecule was assayed on mutant form of α-Gal A expressed in HEK-293 cells (assay: HEK assay (GLP HEK / Migalastat Amenability Assay): α-Gal A activity in lysates of transiently transfected HEK-293 cells incubated with or without 10 μM migalastat). Conditions: 10 μM migalastat versus baseline.
Type: cell-based, human
Procedure, shortened: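 HEK-293 cells transiently transfected with mutant α-Gal A and incubated with or without 10 μM migalastat; lysate activity given as nmol free 4-MU released per mg protein per hour. Values are mean±SEM.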

Point of comparison: B8, “Absolute increase (% WT)” value 21.2 % WT. Against it:
- B1 — higher, 24.8 % WT
- B2 — lower, 9.7 % WT
- B3 — lower, 11.8 % WT
- B4 — lower, 19.7 % WT
- B5 — lower, 15.2 % WT
- B6 — lower, 17.6 % WT
- B7 — lower, 15.3 % WT
- B9 — lower, 9.5 % WT
- B10 — higher, 35.8 % WT
- B11 — lower, 11.6 % WT
- B12 — lower, 18.2 % WT
- B13 — lower, 9.0 % WT
- B14 — lower, 8.4 % WT
- B15 — higher, 22.0 % WT
- B16 — higher, 22.7 % WT
- B17 — lower, 16.8 % WT
- B18 — lower, 16.8 % WT
- B19 — lower, 12.3 % WT
- B20 — lower, 19.0 % WT
- B21 — lower, 17.4 % WT

Point of comparison: B18, Relative increase 1.4. Against it:
- B1 — higher, 1.7
- B2 — lower, 1.3
- B3 — lower, 1.3
- B4 — the same, 1.4
- B5 — lower, 1.2
- B6 — lower, 1.3
- B7 — higher, 2.3
- B8 — lower, 1.3
- B9 — lower, 1.2
- B10 — higher, 1.5
- B11 — higher, 4.1
- B12 — lower, 1.3
- B13 — higher, 16.7
- B14 — lower, 1.2
- B15 — the same, 1.4
- B16 — higher, 1.8
- B17 — higher, 2.0
- B19 — lower, 1.3
- B20 — lower, 1.3
- B21 — lower, 1.3

Same assay, conditions: absence of migalastat; percentage of baseline wild-type α-Gal A activity; mean ± SEM

Point of comparison: B21, “Baseline α-Gal A activity (% WT)” value 65 ± 3.8 % WT. Against it:
- B1 — lower, 39.5 ± 2.3 % WT
- B2 — lower, 39.5 ± 1.9 % WT
- B3 — lower, 35 ± 1.6 % WT
- B4 — lower, 55.5 ± 3.7 % WT
- B5 — within error, 65.7 ± 4.9 % WT
- B6 — within error, 62.9 ± 4.2 % WT
- B7 — lower, 10.9 ± 1.4 % WT
- B8 — within error, 69.5 ± 4.9 % WT
- B9 — lower, 41 ± 0.9 % WT
- B10 — within error, 67.5 ± 6.4 % WT
- B11 — lower, 3.8 ± 0.4 % WT
- B12 — within error, 63.5 ± 2.9 % WT
- B13 — lower, 0.6 ± 0.1 % WT
- B14 — lower, 41.6 ± 1.5 % WT
- B15 — within error, 58.3 ± 3.3 % WT
- B16 — lower, 28.8 ± 2.4 % WT
- B17 — lower, 17.1 ± 1.1 % WT
- B18 — lower, 40.6 ± 3.2 % WT
- B19 — lower, 41.5 ± 2.6 % WT
- B20 — within error, 62.1 ± 2.7 % WT

Same assay, conditions: lysates of HEK-293 cells transiently transfected with the mutant form, incubated 5 days in absence of migalastat; mean ± SEM

Point of comparison: B13, “Baseline α-Gal A activity” value 217 ± 25 nmol/mg/h. Against it:
- B1 — higher, 15626 ± 769 nmol/mg/h
- B2 — higher, 18258 ± 1054 nmol/mg/h
- B3 — higher, 18128 ± 742 nmol/mg/h
- B4 — higher, 20802 ± 2164 nmol/mg/h
- B5 — higher, 25700 ± 1958 nmol/mg/h
- B6 — higher, 26493 ± 1291 nmol/mg/h
- B7 — higher, 4983 ± 848 nmol/mg/h
- B8 — higher, 25254 ± 2385 nmol/mg/h
- B9 — higher, 21459 ± 695 nmol/mg/h
- B10 — higher, 31327 ± 3822 nmol/mg/h
- B11 — higher, 1444 ± 159 nmol/mg/h
- B12 — higher, 26113 ± 1116 nmol/mg/h
- B14 — higher, 21682 ± 817 nmol/mg/h
- B15 — higher, 23263 ± 1479 nmol/mg/h
- B16 — higher, 11683 ± 1406 nmol/mg/h
- B17 — higher, 6415 ± 391 nmol/mg/h
- B18 — higher, 13586 ± 1026 nmol/mg/h
- B19 — higher, 17800 ± 1182 nmol/mg/h
- B20 — higher, 22132 ± 1243 nmol/mg/h
- B21 — higher, 26815 ± 2533 nmol/mg/h

Same assay, conditions: lysates of HEK-293 cells transiently transfected with the mutant form, incubated 5 days with 10 μM migalastat; mean ± SEM

Point of comparison: B17, “10 μM migalastat α-Gal A activity” value 12588 ± 538 nmol/mg/h. Against it:
- B1 — higher, 25719 ± 1376 nmol/mg/h
- B2 — higher, 22856 ± 1772 nmol/mg/h
- B3 — higher, 24184 ± 1517 nmol/mg/h
- B4 — higher, 28411 ± 2891 nmol/mg/h
- B5 — higher, 31632 ± 1825 nmol/mg/h
- B6 — higher, 34474 ± 1484 nmol/mg/h
- B7 — within error, 11592 ± 1593 nmol/mg/h
- B8 — higher, 32890 ± 2292 nmol/mg/h
- B9 — higher, 26360 ± 1002 nmol/mg/h
- B10 — higher, 46560 ± 3904 nmol/mg/h
- B11 — lower, 5855 ± 690 nmol/mg/h
- B12 — higher, 33867 ± 2526 nmol/mg/h
- B13 — lower, 3629 ± 614 nmol/mg/h
- B14 — higher, 26025 ± 1129 nmol/mg/h
- B15 — higher, 31948 ± 1306 nmol/mg/h
- B16 — higher, 20902 ± 2356 nmol/mg/h
- B18 — higher, 19262 ± 903 nmol/mg/h
- B19 — higher, 23210 ± 1299 nmol/mg/h
- B20 — higher, 29289 ± 2351 nmol/mg/h
- B21 — higher, 33517 ± 2802 nmol/mg/h

Same assay, conditions: with 10 μM migalastat, 5 days; percentage of baseline wild-type α-Gal A activity; mean ± SEM

Point of comparison: B1, “10 μM migalastat α-Gal A activity (% WT)” value 64.3 ± 3 % WT. Against it:
- B2 — lower, 49.2 ± 2.9 % WT
- B3 — lower, 46.8 ± 3.2 % WT
- B4 — higher, 75.2 ± 4.1 % WT
- B5 — higher, 80.9 ± 4.6 % WT
- B6 — higher, 80.5 ± 3.6 % WT
- B7 — lower, 26.2 ± 2.6 % WT
- B8 — higher, 90.7 ± 3.7 % WT
- B9 — lower, 50.5 ± 1.7 % WT
- B10 — higher, 103.3 ± 6 % WT
- B11 — lower, 15.4 ± 1.3 % WT
- B12 — higher, 81.7 ± 5 % WT
- B13 — lower, 9.6 ± 1.4 % WT
- B14 — lower, 50 ± 2.2 % WT
- B15 — higher, 80.4 ± 2.8 % WT
- B16 — lower, 51.4 ± 3.9 % WT
- B17 — lower, 33.9 ± 1.8 % WT
- B18 — lower, 57.5 ± 2.5 % WT
- B19 — lower, 53.7 ± 2.5 % WT
- B20 — higher, 81.1 ± 4.6 % WT
- B21 — higher, 82.4 ± 5 % WT
